The record followed here is article PMC4338318.

Assay [1] has as its target Seipin-Myc (wild type) (human) (UniProt Q96G97). Briefly: atomic force microscopy (AFM); complexes isolated by sequential anti-FLAG and anti-Myc immunoaffinity from triply transfected tsA 201 cells; tapping mode in air.
In another assay the target is FLAG-seipin-Myc (human) (UniProt Q96G97). Briefly: atomic force microscopy (AFM); complexes isolated by anti-Myc immunoaffinity from co-transfected tsA 201 cells and eluted; tapping mode in air; particle volumes and decorations.

With “HA-lipin 1α (from UniProt Q14693 1-890) (enzyme)”, the percent of seipin particles doubly decorated by AGPAT2 plus lipin 1 in assay [1] came to 10.1%. In addition, the percent of seipin particles doubly decorated in the assay with FLAG-seipin-Myc (human) is 9%.

Broadly, the stoichiometry N is a count of units in the complex or per binding partner. With “Seipin-Myc (wild type) (from UniProt Q96G97 1-398) (natural protein)”, in assay [1], the stoichiometry N stood at 12.

Consider “FLAG-AGPAT2 (from UniProt O15120 24-278) (enzyme)”, for which, in assay [1], the percent of seipin particles doubly decorated by AGPAT2 plus lipin 1 came out at 10.1%. Besides, in the assay with FLAG-seipin-Myc (human), the percent of seipin particles doubly decorated turned out to be 12.8% and the percent of seipin particles triply decorated was found to be 1%.

In the case of “FLAG-seipin-Myc (from UniProt Q96G97 1-398) (natural protein)”, the stoichiometry N with FLAG-seipin-Myc (human) is 12.
